Laboratory results reported in patent US20250076311A1 (Chugai, published 2025).

Tests used:
[1] = biological target: T1, human FcγRIIb extracellular domain, His-tagged (human, UniProt P31994 43-217); experiment: SPR Biacore, KD(SG1)/KD(variant)
T1 construct: also called FcgRIIb (human); not shown: C-terminal His-tag
T1 sequence: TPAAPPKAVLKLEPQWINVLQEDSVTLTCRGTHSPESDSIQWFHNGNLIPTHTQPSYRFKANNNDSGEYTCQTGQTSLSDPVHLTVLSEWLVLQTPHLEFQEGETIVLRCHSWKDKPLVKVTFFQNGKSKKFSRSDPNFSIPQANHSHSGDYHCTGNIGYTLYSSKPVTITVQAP

[2] = biological target: T2, cynomolgus monkey FcγRIIIaS extracellular domain, His-tagged (cynomolgus monkey, UniProt Q8SPW2 21-206 at identity 1.00)); experiment: SPR Biacore, KD(SG1)/KD(variant)
T2 construct: also called cyno FcγRIIIaS; cynoFcγRIIIaS; not shown: C-terminal His-tag
T2 chain: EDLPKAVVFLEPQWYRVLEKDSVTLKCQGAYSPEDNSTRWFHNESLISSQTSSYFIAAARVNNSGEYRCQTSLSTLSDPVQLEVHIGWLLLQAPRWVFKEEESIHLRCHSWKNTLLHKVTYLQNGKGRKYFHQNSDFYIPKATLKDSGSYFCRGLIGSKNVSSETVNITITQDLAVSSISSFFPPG

[3] = biological target: T3, cynomolgus monkey FcγRIIa1 extracellular domain, His-tagged (cynomolgus monkey); experiment: SPR Biacore, KD(SG1)/KD(variant)
T3 construct: also called cyno FcγRIIa1; cynoFcgRIIa1; not shown: C-terminal His-tag
T3 chain: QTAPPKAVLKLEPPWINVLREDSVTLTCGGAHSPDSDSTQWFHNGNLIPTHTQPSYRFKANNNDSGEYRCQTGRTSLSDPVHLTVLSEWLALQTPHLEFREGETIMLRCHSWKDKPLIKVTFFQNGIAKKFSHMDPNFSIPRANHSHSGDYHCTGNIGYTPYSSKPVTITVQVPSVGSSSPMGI

[4] = biological target: T4, human FcγRIIaH extracellular domain, His-tagged (human, UniProt P12318 34-217); experiment: SPR Biacore, KD(SG1)/KD(variant)
T4 construct: also called human FcγRIIa (type H); FcgRIIaH; not shown: C-terminal His-tag
T4 sequence: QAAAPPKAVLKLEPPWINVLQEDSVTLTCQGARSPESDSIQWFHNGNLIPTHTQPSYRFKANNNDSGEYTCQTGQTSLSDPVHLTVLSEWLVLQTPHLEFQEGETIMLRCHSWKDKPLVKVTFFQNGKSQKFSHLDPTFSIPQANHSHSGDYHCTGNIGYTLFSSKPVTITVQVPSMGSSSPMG

GST-hMSTN 81-180aa = biological target: T5, GST-hMSTN 81-180aa (human, UniProt A1C2U3 81-180 (Pongo pygmaeus entry)); experiment: Western blot with the antibody as probe on GST-tagged 100-amino-acid fragments of the human latent myostatin propeptide expressed in E. coli BL21 (lanes 1-8), GST control (lane 9) and human latent myostatin 100 ng (lane 10)
T5 sequence: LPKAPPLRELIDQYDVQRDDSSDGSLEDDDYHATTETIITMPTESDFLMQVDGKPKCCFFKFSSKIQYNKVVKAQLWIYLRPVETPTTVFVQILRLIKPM
From the text: (§1) Fragments of the N-terminal propeptide coding region of human latent myostatin were cloned into a pGEX4.1 vector so as to produce GST tagged propeptide fragments of 100 amino acid each, with 80 amino acid overlap (FIG. 22A). Protein expression was induced in transformed BL21 competent cells with Overnight Express Autoinduction System (Merck Millipore) and protein was extracted using the BUGBUSTER® protein extraction reagent (Novagen).

GST-hMSTN 41-140aa = biological target: T6, GST-hMSTN 41-140aa (human, UniProt O14793 41-140); experiment: as above
T6 sequence: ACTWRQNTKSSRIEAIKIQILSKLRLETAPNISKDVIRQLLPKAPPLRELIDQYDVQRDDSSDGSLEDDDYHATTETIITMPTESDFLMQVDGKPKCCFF
From the text: as §1

GST-hMSTN 101-200aa = biological target: T7, GST-hMSTN 101-200aa (human, UniProt A1C2U3 101-200 (Pongo pygmaeus entry)); experiment: as above
T7 sequence: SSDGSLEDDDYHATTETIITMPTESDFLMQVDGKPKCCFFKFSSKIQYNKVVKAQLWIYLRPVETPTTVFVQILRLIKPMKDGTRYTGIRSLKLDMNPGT
From the text: as §1

GST-hMSTN 61-160aa = biological target: T8, GST-hMSTN 61-160aa (human, UniProt O14793 61-160); experiment: as above
T8 sequence: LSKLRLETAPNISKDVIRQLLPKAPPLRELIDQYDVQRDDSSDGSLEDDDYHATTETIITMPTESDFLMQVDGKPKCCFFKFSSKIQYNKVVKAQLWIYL
From the text: as §1

Mature myostatin = biological target: T9, Mature myostatin (human, UniProt O14793 267-375); experiment: ELISA: biotinylated antigen (4 nM) on streptavidin-coated plate, antibody titrated, anti-human IgG-HRP, ABTS, OD405
T9 construct: Disulfide-bonded homodimer; Biotinylated in the ELISA; also called human myostatin mature form; active myostatin
T9 sequence: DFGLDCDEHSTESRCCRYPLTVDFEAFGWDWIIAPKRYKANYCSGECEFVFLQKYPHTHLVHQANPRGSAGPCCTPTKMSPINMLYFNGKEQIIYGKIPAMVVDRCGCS
Description: (§2) Uncoated ELISA plates (NUNC-IMMUNO plate MAXISORP surface, Nalge Nunc International) were coated with 20 μL of 50 nM streptavidin (GenScript) for 1 hour at room temperature. Plates were then washed with PBST three times and blocked with 50 μL 20% Blocking One (Nacalai Tesque) overnight. On the next day, each well of each plate was incubated with biotinylated mature myostatin, human or mouse biotinylated latent myostatin, or biotinylated recombinant mouse myostatin propeptide-Fc chimera protein (R&D Systems) at 4 nM/well/20 μL for 2 hours. After washing, 20 μL of antibody sample was added to the wells and the plates were left for 1 hour. The plates were washed and 20 μL of anti-human IgG-horseradish peroxidase (HRP) (Abcam) diluted in HEPES-buffered saline was added, and the plates were left for another hour. The plates were then washed again, and then 50 μL ABTS (KPL) was added to each well, and the plates were incubated for 1 hour.

Human latent myostatin [5] = biological target: T10, Human latent myostatin (human, UniProt O14793 25-266; O14793 267-375); experiment: as above
T10 construct: Biotinylated in the ELISAs; also called human myostatin latent form
T10 sequence 1: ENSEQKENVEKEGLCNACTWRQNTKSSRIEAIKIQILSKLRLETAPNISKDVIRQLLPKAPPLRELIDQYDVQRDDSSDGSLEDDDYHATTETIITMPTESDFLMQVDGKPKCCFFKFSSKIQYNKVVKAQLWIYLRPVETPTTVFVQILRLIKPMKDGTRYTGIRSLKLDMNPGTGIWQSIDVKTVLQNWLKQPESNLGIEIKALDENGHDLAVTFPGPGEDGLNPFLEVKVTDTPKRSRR
T10 sequence 2: T9 sequence
Description: as §2

Mouse latent myostatin = biological target: T11, Mouse latent myostatin (mouse, UniProt O08689 26-267; O08689 268-376, limits assumed); experiment: as above
T11 sequence 1: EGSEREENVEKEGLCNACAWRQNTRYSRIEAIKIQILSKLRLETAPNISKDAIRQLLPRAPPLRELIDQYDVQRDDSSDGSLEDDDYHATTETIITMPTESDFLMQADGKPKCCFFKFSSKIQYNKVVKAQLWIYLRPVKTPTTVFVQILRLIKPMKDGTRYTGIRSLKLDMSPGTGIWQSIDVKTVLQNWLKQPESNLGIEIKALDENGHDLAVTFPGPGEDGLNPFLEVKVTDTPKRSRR
T11 sequence 2: T9 sequence
Description: as §2

Human latent myostatin [6] = biological target: T10, Human latent myostatin; experiment: ELISA: biotinylated human latent myostatin (2 nM) on streptavidin-coated plate, antibody titrated, anti-human IgG-HRP, ABTS, OD405
Description: Uncoated ELISA plates (NUNC-IMMUNO plate MAXISORP™ surface, Nalge Nunc International) were coated with 20 μL of 50 nM streptavidin (GenScript) for 2 hour at room temperature. Plates were then washed with PBST three times and blocked with 50 μL 20% Blocking One (Nacalai Tesque) for overnight. On the next day, each well of the plates was incubated with biotinylated human latent myostatin at 2 nM/well/20 μL or biotinylated human latent GDF11 at 20 nM/well/20 μL for 2 hours. After washing, 20 μL of antibody sample was added to the wells and the plates were left for 1 hour. The plates were washed and 20 μL of anti-human IgG-horseradish peroxidase (HRP) (Abcam) diluted in HEPES-buffered saline was added, and the plates were left for another hour. The wells were washed again, and then 50 μL ABTS (KPL) was added to each well, and the plates were incubated for 1 hour.

B1: M103205H795-MY068/M103202L889-SK1 (antibody, human IgG1, kappa, name in EU numbering)
heavy: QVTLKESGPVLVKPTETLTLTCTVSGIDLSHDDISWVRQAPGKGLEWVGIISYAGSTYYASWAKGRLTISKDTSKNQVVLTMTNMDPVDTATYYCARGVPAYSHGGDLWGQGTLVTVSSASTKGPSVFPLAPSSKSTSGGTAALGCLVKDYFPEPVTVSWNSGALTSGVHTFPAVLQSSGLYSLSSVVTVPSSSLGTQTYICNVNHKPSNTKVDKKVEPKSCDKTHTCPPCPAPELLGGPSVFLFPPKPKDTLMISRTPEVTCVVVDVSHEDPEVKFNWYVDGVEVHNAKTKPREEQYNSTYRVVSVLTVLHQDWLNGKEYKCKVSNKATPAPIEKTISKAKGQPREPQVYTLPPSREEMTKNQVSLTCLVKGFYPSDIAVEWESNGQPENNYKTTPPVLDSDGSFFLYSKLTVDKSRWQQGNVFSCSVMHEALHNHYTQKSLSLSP
light: DIVMTQSPATLSLSPGERATLSCTSSQSVYHANWLSWFQQKPGQPPKLLIYWASTLAYGVPSRFSGSGSGTDFTLTISSLQPEDAATYYCAGGYGGGRYAFGQGTKVEIKRTVAAPSVFIFPPSDEQLKSGTASVVCLLNNFYPREAKVQWKVDNALQSGNSQESVTEQDSKDSTYSLSSTLTLSKADYEKHKVYACEVTHQGLSSPVTKSFNRGEC
notes: Substitution introduced into M103205H795-SG1; EU numbering
KD fold (SG1 = 1) [1]: 2.2 fold
KD fold (SG1 = 1) [2]: 0.62 fold

B2: M103205H795-MY124/M103202L889-SK1 (antibody, human IgG1, kappa, name in EU numbering)
heavy: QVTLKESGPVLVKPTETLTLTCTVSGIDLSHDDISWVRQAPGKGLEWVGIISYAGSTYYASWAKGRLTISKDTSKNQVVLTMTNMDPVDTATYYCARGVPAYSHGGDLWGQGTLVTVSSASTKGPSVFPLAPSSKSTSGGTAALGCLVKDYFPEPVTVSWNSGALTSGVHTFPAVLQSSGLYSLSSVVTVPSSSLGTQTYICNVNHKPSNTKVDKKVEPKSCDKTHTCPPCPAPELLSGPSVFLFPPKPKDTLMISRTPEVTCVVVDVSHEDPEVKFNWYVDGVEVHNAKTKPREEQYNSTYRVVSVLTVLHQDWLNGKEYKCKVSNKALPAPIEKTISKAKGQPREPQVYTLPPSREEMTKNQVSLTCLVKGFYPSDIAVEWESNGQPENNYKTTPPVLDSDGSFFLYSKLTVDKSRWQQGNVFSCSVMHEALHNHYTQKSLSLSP
light: B1 light
notes: as for B1
KD fold (SG1 = 1) [3]: 1.2 fold
KD fold (SG1 = 1) [4]: 4.5 fold

B3: MST1573 (antibody, human IgG1, kappa, V domains shown)
VH: QSVEESGGRLVTPGTPLTLTCTVSGIDLSSSSMIWVRQAPGEGLKYIGFISKSGYTYYASWAKGRFTISKTSTTVDLKITSPTTEDTATYFCARGGYSGDWDYFTLWGPGTLVTVSS
VL: DIVMTQTPASVEAAVGGTVTIKCQASESIGNALAWYQQKPGQPPKLLIYGAFNLESGVPSRFRGSGSGTEYTLTISDLECDDAATYYCQGYFWSSSTIYAFWAFGGGTKVEIKR
notes: Constant regions as for MST1504
binding result (GST-hMSTN 81-180aa): no binding
binding result (GST-hMSTN 41-140aa): no binding
binding result (GST-hMSTN 101-200aa): no binding
binding result (GST-hMSTN 61-160aa): no binding

B4: MS_MST1032Ha-G1m/MST1032La-k0MC (antibody, human IgG1, kappa, V domains shown)
VH: QSLEESGGRLVTPGGSLTVTCRVSGIDLSSYDISWVRQAPGKGLEWIGIISYAGSTYYASWAKGRFTISKTSTTVDLKMTSLTTEDTATYFCARGVPAYSTGGDLWGPGTLVTVSS
VL: AQVLTQTASSVSAAVGGTVTINCQSSQSVYDNNWLSWFQQKPGQPPKLLIYWASTLASGVPSRFKGSGSGTQFTLTISDLECDDAATYYCAGGYGGGLYAFGGGTKVEIKR
notes: Rabbit/human chimeric antibody; also called MST1032-G1m
binding result (Mature myostatin): no binding (tested: 10 ng/µL (log 1))
EC50 (read off the curve) (Human latent myostatin [5]): ~0.008 µg/mL
EC50 (read off the curve) (Mouse latent myostatin): ~0.01 µg/mL
EC50 (read off the curve) (Human latent myostatin [6]): ~0.02 µg/mL
